Variants at the floor of the assay were thinned out.
B1: TPR 5TU (parent)
chain: GGAUCUUCUCGAUCUAACAAAAAAGACAAAUCUGCCACAAAGCUUGAGAGCAUCUUCGGAUGCAGAGGCGGCAGCCUUCGGUGGCGCGAUAGCGCCAACGUUCUCAACUAUGACACGCAAAACGCGUGCUCCGUUGAAUGGAGUUUAUCAUG

Variants of: B1
Assay: polymerase ribozyme fitness, log enrichment relative to wild type (log ratio); higher = more active; in vitro selection for triplet polymerase activity
Outline: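 After PCR construction and transcription, each subunit's mutant library from a heterodimeric triplet polymerase ribozyme was annealed with a biotinylated primer, the partner subunit and triplets. Incubation was frozen, at −7 °C, and extended constructs were gel-excised, bound to streptavidin beads and amplified by RT-PCR, in one selection round done in triplicate. Fitness is the logarithm of a genotype's enrichment divided by that of the wild type, from inverse-variance-weighted replicate averages of Illumina-sequenced inputs and outputs. The base of the logarithm is 2, and genotypes needed ≥10 input reads and ≥1 read per output.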

Variant | polymerase ribozyme fitness (log ratio)
C75A | -3.85
C75G | -3.24
C75U | -0.0565
G74U G83C G94C | ≤ -4.2
C72G U127C G143U U144G | ≤ -4.2
G74U A107G | ≤ -4.2
C72U C79A C85U | ≤ -4.2
G71U C93U | -3.57
A64C C93U U102G | ≤ -4.2
A66G C87A | ≤ -4.2
C75U A113C | -3.87
C75U A89G | -0.933
G65A G88U A150G | ≤ -4.2
A73G A115G G141A | -2.44
A64U C103G U134G G141C | ≤ -4.2
G62C A64G G83C U102G C114U U127G | ≤ -4.2
G62A G84A | -2.31
A73G G84A | -0.268
A73G G140A | -2.98
A73G G88C A107U C129U U139C U148A | ≤ -4.2
C75G G88A A98U C103U | ≤ -4.2

Variant | polymerase ribozyme fitness (log ratio)
A73U C116G | -2.81
C69A U77G C118U U139C | ≤ -4.2
G68U G71U G86U A97U | ≤ -4.2
A64G G84U | -4.16
C63G A73G G94A G136A | -0.0432
G70A G124C U144C | ≤ -4.2
A66G A89U C95G C116A C123A | ≤ -4.2
C69G A91G | -3.88
G74A A106U A107U G133U | -3.93
A73U U148C G152C | ≤ -4.2
G68A G81U C96A | -3.57
G70A G86U G88U C99G C105G C114G | ≤ -4.2
G62C G74A G83A C125A U139G G140A | ≤ -4.2
C75A C116U | ≤ -4.2
C75G C87G C93U C103G | ≤ -4.2
G62U G68C A98G G124C G141A | ≤ -4.2
A73G C75U U77C A89U G136A C149G | ≤ -4.2
C72U C85G C99G C114G | ≤ -4.2
G71A G84U U101C A142C | ≤ -4.2
C69A A73G C87U | ≤ -4.2
G68U C85U | ≤ -4.2

Variant | polymerase ribozyme fitness (log ratio)
A73G A106C G141U | -1.34
A64C A66U A122G | ≤ -4.2
A66G C85A | -3.39
G62C G68A U82G C93A A97G C118A G143U | ≤ -4.2
A73C C87A | ≤ -4.2
C63G C125G U145C A150C | ≤ -4.2
A73U C79G A107U A113C | ≤ -4.2
G70A C93A C123U | ≤ -4.2
G65U G84U G88A | ≤ -4.2
C69U U102C | -2.59
G62A G92A C116U | -2.52
A73U G81A A122U | -0.858
G67C C85U G126U G133C G143A | ≤ -4.2
G68C G74C C87U C118A U135A C149G | ≤ -4.2
C75U A113U G124U U144C | ≤ -4.2
C75U C85U U135G U146A | -3.82
C63A C93U A98C | -1.62
A73G A137C U145G | -3.74
G68A G74A U90C | ≤ -4.2
G62U A73C G94C | ≤ -4.2
G65C C149G | ≤ -4.2

Variant | polymerase ribozyme fitness (log ratio)
C69A G81A | -1.51
A66U C85U U102C A107G G143C | ≤ -4.2
G68A C85U A110G | ≤ -4.2
G65U | -3.1
G65C | ≤ -4.2
G65A | -1.04
A73G G94U A106G | -0.312
C75U A97G C131U U135G | -3.18
G68A C85U C105A G124A G133U | ≤ -4.2
G67C G94A C95G A150G | ≤ -4.2
G71A G92U | -2.6
A64U C75U C85U G136C | ≤ -4.2
A73U G83U G84U A97C G100U C105A | ≤ -4.2
C69A G84U A137G | -3.58
C63U G83C C96U C105G G117U | -2.06
A64G C76U | -3.62
G70C G81A C96A C108U A120G A138C | ≤ -4.2
C75U C85G C103A A107U U146G A147U A150G | ≤ -4.2
G70A C105A C123A | ≤ -4.2
G71A C93U | -2.94
C75A A137C A150U | ≤ -4.2

Reference: the RNAGym collection of RNA variant scans (doi:10.1073/pnas.2313332121)
